Reference: patent US20070172470A1, “Phosphatase regulation of nucleic acid transcription” (The Regents of the University of California, priority 2003, published 2007)

Key:
RNAP IIO = molecular target: T1, RNAP IIO (Bos taurus, UniProt G3MZY8); assay: CTD phosphatase assay with RNAP IIO as substrate; type: biochemical, calf
T1 construct: Calf thymus RNAP IIA was purified; from tissue; host or cells: calf thymus
Protocol: FIGS. 2C and 2D show a CTD phosphatase assay of FCP1 and SCP1 on GST-CTDo and RNAP IIO prepared by MAPK2/ERK2. Increasing amounts of FCP1 or GST-SCP1 214 were assayed in the presence of 75 fmol GST-CTDo (lanes 1-6), 75 fmol RNAP IIO (lanes 7-12), or 75 fmol GST-CTDo and 75. fmol RNAP IIO (lanes 13-18). Both GST-CTDo and RNAP IIO substrates were prepared by the in vitro phosphorylation of CKII-labeled GST-CTDa or RNAP IIA by MAPK2/ERK2. All reactions were carried out in the presence of 7 pmol RAP74. CTD dephosphorylation of both GST-CTDo and RNAP IIO is shown by the increase in mobility of GST-CTDo to GST-CTDa and subunit IIo to IIa, respectively. The difference in the intensity of radiolabeled GST-CTDoand that of radiolabeled subunit IIo is not a reflection of a difference in the amount of substrates present, but of the higher efficiency with which CKII incorporates radiolabeled phosphates onto the most C-terminal serine of GST-CTDa compared to subunit. IIa.
Increasing amounts of GST-SCP1 214 were assayed in the presence of 3.7 fmol RNAP IIO prepared by CTDK1/CTDK2, TFIIH, P-TEFb, MAPK2/ERK2 and Cdc2 kinase. All reactions were carried out in-the presence of 7 pmol. RAP74. CTD dephosphorylation of RNAP IIO isozymes. by qSTSCP1 214 is shown by an increase in mobility of subunit IIo to that of IIa. The results are summarized in the graph showing the percent of RNAP IIO remaining as a function of increasing SCP1 concentrations.
Preparation and Purification of ^32P-RNAP IIO Isozymess and ^32P-GST-CTDo: Calf thymus RNAP IIA was purified by the method of Hodo and Blatti (30) with modifications as described by Kang and Dahmus (31). Specific isozymes of ^32p-labeled RNAP IIO were prepared by phosphorylation at the most C-terminal serine (CKII site) in the largest subunit of purified RNAP IIA with recombinant CKII and […], followed by CTD phosphorylation in the presence of 2 mM ATP with either purified CTDK1/CTDK2, TFIIH, P-TEFb, recombinant MAPK2/ERK2 or recombinant Cdc2 kinase. The RNAP IIO isozymes were individually purified over a DE53 column with a step elution of 500 mM KCl (28). Because only the most C-terminal serine is labeled with ^32p and lies outside. the consensus repeat, dephosphorylation by CTD phosphatase results in an electrophoretic mobility shift in SDS-PAGE of subunit IIo to the position of subunit IIa without the loss of label. Similarly, ^32P-labeled GST-CTDo was prepared from GST-CTDa by CKII followed by MAPK2/ERK2. GST-CTDo was purified over a glutathione-agarose column with a step elution of 15 mM glutathione.
CTD phosphatase assays utilizing RNAP IIO and GST-CTDo as substrate were performed as described previously (32) with minor modifications. Reactions were performed in 20 μl of CTD phosphatase buffer (50 mM Tris-HCl, pH 7.9, 10 mM MgCl2, 20% glycerol, 0.025% Tween 80, 0.1 mM EDTA, 5 mM DTT) in the presence of 20 mM KCl. Each reaction contained specified amounts of GST-CTDo and/or RNAP IIO and was carried out in the presence of 7 pmol RAP74. Reactions were initiated by the addition of FCP1 or SCP1 and incubated at 30° C. for 30 minutes. Assays were terminated by the addition of 5× Laemmli buffer, and RNAP II subunits and GST-CTD were resolved on a 5% SDS-PAGE gel. The gel images were developed by autoradiography and scanned by Molecular Dynamics Image Scanner Storm 860 in the phosphor screen mode. Data were quantitatively analyzed by ImageQuant software.

[1] = test system: glucocorticoid receptor activity on GRE-TK-Luc construct; assay: Luciferase reporter assay, dexamethasone-stimulated glucocorticoid receptor; type: cell-based, human; settings: 100 nM dexamethasone
Source text: (§1) Gal4-DNA binding domain-SCP1 fusion protein expression plasmids-were cotransfected in HEK293 cells with a Gal 4-TKLuc reporter plasmid and luciferase gene expression quantitated. In all panels, results of triplicate transfections are shown +/− SD. Data is expressed as fold-activation experimental/control). […] The indicated amounts of SCP1 or mutant SCP1 expression plasmids were cotransfected in HEK293 cells along with Gal 4-VP16 expression and Gal 4-TK-Luc reporter plasmids and luciferase activity was quantitated. […] The indicated receptor expression plasmids were cotransfected with their cognate promoter-reporter plasmids with or without SCP1 or mutant SCP1 expression plasmids. Cells were treated or untreated with receptor-specific ligands as described infra. […] The indicated concentrations of SCP1 and mutant SCP1 expression plasmids were cotransfected with LMX1 and E47 expression plasmids and the rat insulin 1 promoter-luciferase reporter gene. Luciferase activity was measured as described.
(§2) Tissue Culture and Transfections: Human 293, COS7 and CV1 cells were grown at 37° C. in DMEM supplemented with 10% normal calf serum (BRL). Sub-confluent cells were transfected in 6 well tissue culture dishes using Effectene (Qiagen) according to the manufacturer's instructions. Reporter and activator plasmids (100 ng each) and Flag SCP1 (80 ng) or its mutant were used per well. […]

[2] = test system: rat insulin 1 promoter-luciferase reporter gene; assay: Rat insulin promoter-luciferase assay with LMX1 and E47; type: cell-based; settings: LMX1 and E47 co-expressed
Source text: as §1, §2

[3] = test system: ElALuc, pGL3-Luc and Gal4-TATA-Luc constructs; assay: Luciferase reporter assay, basal promoter activity; type: cell-based, human; settings: cotransfected
Source text: as §1, §2

[4] = 3.7 fmol RNAP IIO, 7 pmol RAP74

B1: SCP1: small CTD phosphatase-1, full-length 261 aa human protein, SEQ ID NO:2 (protein, listed as Homo sapiens)
chain: MDSSAVITQISKEEARGPLRGKGDQKSAASQKPRSRGILHSLFCCVCRDDGEALPAHSGAPLLVEENGAIPKTPVQYLLPEAKAQDSDKICVVIDLDETLVHSSFKPVNNADFIIPVEIDGVVHQVYVLKRPHVDEFLQRMGELFECVLFTASLAKYADPVADLLDKWGAFRARLFRESCVFHRGNYVKDLSRLGRDLRRVLILDNSPASYVFHPDNAVPVASWFDNMSDTELHDLLPFFEQLSRVDDVYSVLRQPRPGS
- dephosphorylation of RNAP IIO generated by Abl tyrosine kinase (RNAP IIO): unable to dephosphorylate
- dephosphorylation of RNAP IIO generated by TFIIH (RNAP IIO; [4]): most efficiently dephosphorylates
- dephosphorylation of RNAP IIO prepared with Cdc2 kinase (RNAP IIO; [4]): unable to dephosphorylate
- dephosphorylation of RNAP IIO isozymes prepared with P-TEFb, MAPK2/ERK2 and CTDK1/CTDK2 (RNAP IIO; relative to RNAP IIO prepared with TFIIH): reduced rate
- dexamethasone-stimulated glucocorticoid receptor activity [1]: inhibited
- inhibition of luciferase expression ([2]; 40 ng SCP1 plasmid alone): > 90%
- inhibition of luciferase expression ([2]; 40 ng SCP1 plasmid plus 20 ng mutant SCP1 plasmid): ~20%
- reporter gene expression from basal promoter constructs [3]: no significant effect
